# Results reported in patent US12404345B2, “Humanized antibodies against iRHOM2” (SCIRHOM GMBH, priority 2021, dated 2025).
# Test system: cynomolgus monkey iRhom1
# Test: FACS binding on MEF-DKO-Cyno-iR1-FL-WT-T7 cells
# Conditions: antibody at 3 μg/ml
# Excerpt: Next, iRhom1/2−/− DKO MEFs stably expressing a tagged form of rhesus monkey, cynomolgus monkey, dog or rabbit iRhom2 were generated in order to determine cross-reactivity of the antibodies of the invention with the respective orthologue of iRhom2. iRhom1/2−/− DKO MEFs stably expressing a tagged form of rhesus monkey, cynomolgus monkey, dog or rabbit iRhom1 were generated to confirm specificity for iRhom2 versus iRhom1 of these species.
# In brief, on day 1, Phoenix-ECO cells (American Type Culture Collection, USA) were seeded on 6-well tissue culture plates (Greiner, Germany) in standard growth medium at 8×10^5 cells per well and kept overnight at 37° C., 5% CO2. On day 2, the medium was replaced by fresh medium supplemented with chloroquine (Sigma-Aldrich, USA) at a final concentration of 25 μM. Applying the calcium phosphate method, cells were transfected with 2 μg/ml of pMSCV (Clontech, USA) empty vector, pMSCV-rhesus-iR2-FL-WT-T7 encoding rhesus monkey iRhom2 full length wild type C-terminally tagged with 3 consecutive copies of the T7 epitope, pMSCV-cyno-iR2-FL-WT-T7 encoding cynomolgus monkey iRhom2 full length wild type C-terminally tagged with 3 consecutive copies of the T7 epitope, pMSCV-dog-iR2-FL-WT-T7 encoding dog iRhom2 full length wild type C-terminally tagged with 3 consecutive copies of the T7 epitope or pMSCV-rabbit-iR2-FL-WT-T7 encoding rabbit iRhom2 full length wild type C-terminally tagged with 3 consecutive copies of the T7 epitope, respectively, and were kept at 37° C., 5% CO2. After 7 hours, the transfections were stopped by replacing cell supernatants with standard growth medium lacking chloroquine, and cells were incubated at 37° C., 5% CO2 to allow virus production overnight. In parallel, immortalized iRhom1/2−/− DKO MEFs as target cells for retroviral infection were seeded on 6-well tissue culture plates (Greiner, Germany) in standard growth medium at 1×10^5 cells per well and were also kept overnight at 37° C., 5% CO2. On day 3, the supernatants of Phoenix-ECO cells releasing pMSCV, pMSCV-rhesus-iR2-FL-WT-T7, pMSCV-cyno-iR2-FL-WT-T7, pMSCV-dog-iR2-FL-WT-T7 or pMSCV-rabbit-iR2-FL-WT-T7 ecotrophic virus, respectively were collected, filtered with 0.45 μm CA filters, and supplemented with 4 μg/ml of polybrene (Sigma-Aldrich, USA). Upon removal of medium from the immortalized iRhom1/2−/− DKO MEFs, the virus containing supernatants were added to the target cells for 4 hours at 37° C., 5% CO2 for first infection. Simultaneously, Phoenix-ECO cells were re-incubated with fresh medium, which, after another 4 hours, was filtered and used for the second infection of the respective target cell populations, again in the presence of 4 μg/ml of polybrene. Likewise, a third, but overnight infection cycle was performed. On day 4, virus containing cell supernatants were replaced by fresh standard growth medium. From day 5 onwards, cells were grown in the presence of 2 mg/ml of geneticin (G418, Thermo Fisher Scientific, USA) for the selection of immortalized MEF-DKO-EV control cells stably infected with pMSCV empty vector, pMSCV-rhesus-iR2-FL-WT-T7 cells stably expressing rhesus monkey iRhom2 full length wild type C-terminally tagged with 3 consecutive copies of the T7 epitope, pMSCV-cyno-iR2-FL-WT-T7 cells stably expressing cynomolgus monkey iRhom2 full length wild type C-terminally tagged with 3 consecutive copies of the T7 epitope, pMSCV-dog-iR2-FL-WT-T7 cells stably expressing dog iRhom2 full length wild type C-terminally tagged with 3 consecutive copies of the T7 epitope or pMSCV-rabbit-iR2-FL-WT-T7 cells stably expressing rabbit iRhom2 full length wild type C-terminally tagged with 3 consecutive copies of the T7 epitope, respectively. Upon propagation, cells were stocked for future usage. In parallel, iRhom1/2−/− DKO MEFs stably expressing a tagged form of rhesus monkey, cynomolgus monkey, dog or rabbit iRhom1 were generated in an analogous manner. […]
row,Molecule,binding to cynomolgus monkey iRhom1 on MEF-DKO-Cyno-iR1-FL-WT-T7 cells
1,"23-B-04: humanized antibody binding human iRhom2; HCVD SEQ ID NO 25, LCVD SEQ ID NO 29 (antibody, V domains shown, antibody sequences) VH: QVTLRESGPALVKPTQTLTLTCTFSGFSLSTFGMGVGWIRQPPGKALEWLAHIWWDDEKYYNSALKSRLTISKDTSKNQVVLTITNMDPVDTATYYCARISNYGSNYWYFNVWGQGTLVTVSS VL: AIQLTQSPSSLSASVGDRVTITCRASSSVSYMYWYQQKPGKAPKVLIYDTSNLASGVPSRFSGSGSGTDYTLTISSLQPEDFATYYCQQWNAYPLTFGQGTKLEIK",do not recognize cynomolgus monkey iRhom1
2,"42-B-02: humanized antibody binding human iRhom2; HCVD SEQ ID NO 33, LCVD SEQ ID NO 37 (antibody, V domains shown, antibody sequences) VH: QVTLRESGPALVKPTQTLTLTCTFSGFSLSTFGRGVGWIRQPPGKALEWLAHIWWDDEKYYNSALKSRLTISKDTSKNQVVLTITNMDPVDTATYYCARIQNYGSNYWYFDVWGQGTLVTVSS VL: AIQLTQSPSSLSASVGDRVTITCRASSRISYMFWYQQKPGKAPKVLIYDTSNLASGVPSRFSGSGSGTDYTLTISSLQPEDFATYYCQQWNSYPLTFGQGTKLEIK",do not recognize cynomolgus monkey iRhom1
3,"42-B-04: humanized antibody binding human iRhom2; HCVD SEQ ID NO 41, LCVD SEQ ID NO 45 (antibody, V domains shown, antibody sequences) VH: QVTLRESGPALVKPTQTLTLTCTFSGFSLSTFGRGVGWIRQPPGKALEWLAHIWWDDEKYYNSALKSRLTISKDTSKNQVVLTITNMDPVDTATYYCARIQNYGSNYWYFDVWGQGTLVTVSS VL: AIQLTQSPSSLSASVGDRVTITCRASSRISYMFWYQQKPGKAPKVLIYDTSNLASGVPSRFSGSGSGTDYTLTISSLQPEDFATYYCQQWNAYPLTFGQGTKLEIK",do not recognize cynomolgus monkey iRhom1
4,"16-B-03: humanized antibody binding human iRhom2; HCVD SEQ ID NO 1, LCVD SEQ ID NO 5 (antibody, V domains shown, antibody sequences) VH: QVTLRESGPALVKPTQTLTLTCTFSGFSLSTFALGVGWIRQPPGKALEWLAHIWWDDDKYYNPALKSRLTISKDTSKNQVVLTITNMDPVDTATYYCARITTYYYGMDYWGQGTLVTVSS VL: EIVMTQSPDFQSVTPKEKVTITCRASQSIGNHLHWYQQKPDASPKLLIKYASQSISGVPSRFSGSGSGTDFTLTINSLEAEDAATYFCQQSYQWPLTFGQGTKLEIK",no significant binding
5,"16-B-07: humanized antibody binding human iRhom2; HCVD SEQ ID NO 17, LCVD SEQ ID NO 21 (antibody, V domains shown, antibody sequences) VH: QVTLRESGPALVKPTQTLTLTCTFSGFSLSTFALGVGWIRQPPGKALEWLAHIWWDEDKYYNPALKSRLTISKDTSKNQVVLTITNMDPVDTATYYCARITTYYYGMDYWGQGTLVTVSS VL: EIVMTQSPDFQSVTPKEKVTITCRASQSIGNHLHWYQQKPDASPKLLIKYASQSISGVPSRFSGSGSGTDFTLTINSLEAEDAATYFCQQSYQWPLTFGQGTKLEIK",do not recognize cynomolgus monkey iRhom1
6,"16-B-05: humanized antibody binding human iRhom2; HCVD SEQ ID NO 9, LCVD SEQ ID NO 13 (antibody, V domains shown, antibody sequences) VH: QVTLRESGPALVKPTQTLTLTCTFSGFSLSTFALGVGWIRQPPGKALEWLAHIWWDEDKYYNPALKSRLTISKDTSKNQVVLTITNMDPVDTATYYCARITTYYYGMDYWGQGTLVTVSS VL: EIVMTQSPDFQSVTPKEKVTITCRASQSIGNHLHWYQQKPDASPKLLIKYASQSISGVPSRFSGSGSGTDFTLTINSLEAEDAATYFCQQSYNWPLTFGQGTKLEIK",do not recognize cynomolgus monkey iRhom1
